Laboratory results: patent US20200284794A1

Tests used:
[1] = target: Keratin 17 recombinant protein (human) (UniProt Q04695); assay: sandwich ELISA: E3 capture, 2D10-HRP detection, recombinant K17 calibrators
[2] = target: Keratin 17 recombinant protein (human) (UniProt Q04695); assay: sandwich ELISA: E3 coated 2 ug/mL, recombinant K17 calibrator 1.4 ng/mL, detection 2D10-HRP 1 ug/mL
[3] = target: Keratin 17 recombinant protein (human) (UniProt Q04695); assay: sandwich ELISA: E3 coated 2 ug/mL, recombinant K17 calibrator 4.1 ng/mL, detection 2D10-HRP 1 ug/mL
[4] = target: Keratin 17 recombinant protein (human) (UniProt Q04695); assay: sandwich ELISA: E3 coated 2 ug/mL, recombinant K17 calibrator 1000 ng/mL, detection 2D10-HRP 1 ug/mL
[5] = target: Keratin 17 recombinant protein (human) (UniProt Q04695); assay: sandwich ELISA: E3 coated 2 ug/mL, recombinant K17 calibrator 12.3 ng/mL, detection 2D10-HRP 1 ug/mL
[6] = target: Keratin 17 recombinant protein (human) (UniProt Q04695); assay: sandwich ELISA: E3 coated 2 ug/mL, recombinant K17 calibrator 37.0 ng/mL, detection 2D10-HRP 1 ug/mL
[7] = target: Keratin 17 recombinant protein (human) (UniProt Q04695); assay: sandwich ELISA: E3 coated 2 ug/mL, recombinant K17 calibrator 111.1 ng/mL, detection 2D10-HRP 1 ug/mL
[8] = target: Keratin 17 recombinant protein (human) (UniProt Q04695); assay: sandwich ELISA: E3 coated 2 ug/mL, recombinant K17 calibrator 333.3 ng/mL, detection 2D10-HRP 1 ug/mL
[9] = target: Keratin 17 in HeLa cells (human) (UniProt Q04695); assay: microfluidic cytometry (Moxi Go), methanol-fixed HeLa cells, E3 primary antibody, PE anti-mouse secondary

limit of sensitivity [1]: 1 ng/mL
OD Avg. (450 nm) [2]: 0.084 OD
OD-1 (450 nm) [2]: 0.087 OD
OD-2 (450 nm) [2]: 0.081 OD
OD Avg. (450 nm) [3]: 0.141 OD
OD-1 (450 nm) [3]: 0.142 OD
OD-2 (450 nm) [3]: 0.14 OD
OD Avg. (450 nm) [4]: 3.59 OD
OD-1 (450 nm) [4]: 3.56 OD
OD-2 (450 nm) [4]: 3.62 OD
OD Avg. (450 nm) [5]: 0.321 OD
OD-1 (450 nm) [5]: 0.323 OD
OD-2 (450 nm) [5]: 0.318 OD
OD Avg. (450 nm) [6]: 0.838 OD
OD-1 (450 nm) [6]: 0.844 OD
OD-2 (450 nm) [6]: 0.832 OD
OD Avg. (450 nm) [7]: 2.38 OD
OD-1 (450 nm) [7]: 2.47 OD
OD-2 (450 nm) [7]: 2.29 OD
OD Avg. (450 nm) [8]: 3.59 OD
OD-1 (450 nm) [8]: 3.58 OD
OD-2 (450 nm) [8]: 3.6 OD
% K17-positive cells [9]: 90.4%
Substance: mouse monoclonal-[E3] anti-human K17 antibody
